Experimental data: US20190315854A1 (BEIJING VDJBIO, published 2019)
Numbering of substitutions follows the chain as printed. Where two headings read alike, the source gives them in different places. Values belong to the binder of their own block, whether it stands above or below them.

Key:
Assay in all cases: SPR (BIAcore 3000), antibody on chip, sIL-6R analyte, 25 C
[1] = biological target: T1, sIL-6R (soluble IL-6 receptor; SBH Sciences) (human, UniProt P08887 20-365)
T1 construct: also called human IL-6R
T1 sequence: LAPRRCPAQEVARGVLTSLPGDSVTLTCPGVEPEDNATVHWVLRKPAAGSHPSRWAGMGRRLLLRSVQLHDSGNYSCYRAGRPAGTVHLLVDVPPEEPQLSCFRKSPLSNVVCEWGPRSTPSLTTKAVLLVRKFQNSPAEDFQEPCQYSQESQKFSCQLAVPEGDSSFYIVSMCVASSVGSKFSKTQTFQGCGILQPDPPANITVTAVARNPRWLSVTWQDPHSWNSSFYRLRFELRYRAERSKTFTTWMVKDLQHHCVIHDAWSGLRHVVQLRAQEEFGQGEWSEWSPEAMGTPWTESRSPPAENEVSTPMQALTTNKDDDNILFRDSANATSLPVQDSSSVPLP
Protocol: (§1) All SPR measurements were performed on a BIAcore 3000 instrument (GE Biosciences, Piscataway, N.J.). BIAcore Software-BIAcore 3000 Control Software V3.2 was used for the operation and control of the BIAcore 3000 instrument. BiaEvaluation Software V4.1 was used for the analysis of SPR data from the BIAcore 3000 instrument and data was plotted using Graph Pad Prism Software Version 5. […] The indicated antibodies were used as the ligand for the construction of the reference channel of the chip. […] Each sample was injected for 3 min at a flow rate of 30 μL/min to allow for binding to chip-bound antibody. Next, binding buffer without analyte was sent over the chip at the same flow rate to allow for dissociation of bound analyte. After 500s, remaining bound analyte was removed by injecting regeneration solution (1M Formic acid). Data was analyzed by using the Kinetics Wizard and the manual fitting programs that are both included with the BiaEvaluation Software V4.1.

[2] = biological target: T1, sIL-6R (soluble IL-6 receptor; SBH …); remark: listed apart in the source
Protocol: as §1

[3] = biological target: T1, sIL-6R (soluble IL-6 receptor; SBH …); remark: listed apart in the source
Protocol: as §1

[4] = biological target: T1, sIL-6R (soluble IL-6 receptor; SBH …); remark: listed apart in the source
Protocol: as §1

Kd [1]: 0.435 nM | Relative Affinity [1]: 3.9 fold vs 25 (Tocilizumab) | koff [1]: 8.87e-05 s⁻¹ | kon [1]: 204000 M⁻¹ s⁻¹ | Kd [2]: 0.273 nM | Relative Affinity [2]: 4.9 fold vs 25 (Tocilizumab) | koff [2]: 5.8e-05 s⁻¹ | kon [2]: 213000 M⁻¹ s⁻¹
B1: 3# (antibody, human IgG1, kappa, V domains shown)
VH: QVQLQESGPGLVRPSQTLSLTCTVSGYSITSDHAWSWVRQPPGRGLEWIGYISYSGITTYNPSLKSRVTMLRDTSKNQFSLRLSSVTAADTAVYYCARSLARATAMDYWGQGSLVTVSS
VL: DIQMTQSPSSLSASVGDRVTITCRASQDISSYLNWYQQKPGKAPKLLIYYTSRLHSGVPSRFSGSGSGTDFTFTISSLQPEDIATYYCQQGNTLPYTFGQGTKVEIKR
notes: also called Sample # 3

Kd [1]: 0.605 nM | Relative Affinity [1]: 2.8 fold vs 25 (Tocilizumab) | koff [1]: 0.000106 s⁻¹ | kon [1]: 175000 M⁻¹ s⁻¹
B2: 45# (antibody, human IgG1, kappa, V domains shown)
VH: B1 VH with S99T, A103T
VL: B1 VL
notes: also called Sample # 45

Kd [1]: 0.156 nM | Relative Affinity [1]: 11 fold vs 25 (Tocilizumab) | koff [1]: 5.99e-05 s⁻¹ | kon [1]: 385000 M⁻¹ s⁻¹ | Kd [2]: 0.1 nM | Relative Affinity [2]: 13.4 fold vs 25 (Tocilizumab) | koff [2]: 2.92e-05 s⁻¹ | kon [2]: 292000 M⁻¹ s⁻¹
B3: 31# (antibody, human IgG1, kappa, V domains shown)
VH: B1 VH with Y51F, I57M, A103I
VL: B1 VL
notes: also called Sample # 31

Kd [2]: 0.882 nM | Relative Affinity [2]: 1.5 fold vs 25 (Tocilizumab) | koff [2]: 0.000234 s⁻¹ | kon [2]: 266000 M⁻¹ s⁻¹
B4: 5# (antibody, human IgG1, kappa, V domains shown)
VH: B1 VH with Y51F, A103T
VL: B1 VL
notes: also called Sample # 5

Kd [1]: 0.261 nM | Relative Affinity [1]: 6.6 fold vs 25 (Tocilizumab) | koff [1]: 9.75e-05 s⁻¹ | kon [1]: 374000 M⁻¹ s⁻¹ | Kd [2]: 0.181 nM | Relative Affinity [2]: 7.4 fold vs 25 (Tocilizumab) | koff [2]: 5.69e-05 s⁻¹ | kon [2]: 314000 M⁻¹ s⁻¹
B5: 14# (antibody, human IgG1, kappa, V domains shown)
VH: B1 VH with Y51F, A103I
VL: B1 VL
notes: also called Sample # 14

Kd [2]: 0.42 nM | Relative Affinity [2]: 3.2 fold vs 25 (Tocilizumab) | koff [2]: 0.000102 s⁻¹ | kon [2]: 243000 M⁻¹ s⁻¹
B6: 26# (antibody, human IgG1, kappa, V domains shown)
VH: B1 VH with I57M, A103T
VL: B1 VL
notes: also called Sample # 26

Kd [1]: 0.167 nM | Relative Affinity [1]: 10.2 fold vs 25 (Tocilizumab) | koff [1]: 5.42e-05 s⁻¹ | kon [1]: 325000 M⁻¹ s⁻¹ | Kd [2]: 0.141 nM | Relative Affinity [2]: 9.5 fold vs 25 (Tocilizumab) | koff [2]: 4.73e-05 s⁻¹ | kon [2]: 335000 M⁻¹ s⁻¹
B7: 18# (antibody, human IgG1, kappa, V domains shown)
VH: B1 VH with Y51F, S99C, A103I
VL: B1 VL
notes: also called Sample # 18

Kd [1]: 0.648 nM | Relative Affinity [1]: 2.6 fold vs 25 (Tocilizumab) | koff [1]: 0.000146 s⁻¹ | kon [1]: 225000 M⁻¹ s⁻¹
B8: 35# (antibody, human IgG1, kappa, V domains shown)
VH: B1 VH with A103M
VL: B1 VL
notes: also called Sample # 35

Kd [3]: 1.65 nM | Relative Affinity [3]: 1.7 fold vs 25 (Tocilizumab) | koff [3]: 0.000218 s⁻¹ | kon [3]: 132000 M⁻¹ s⁻¹
B9: 49# (antibody, human IgG1, kappa, V domains shown)
VH: B1 VH with P62A, A103T
VL: B1 VL
notes: also called Sample # 49

Kd [1]: 0.408 nM | Relative Affinity [1]: 4.2 fold vs 25 (Tocilizumab) | koff [1]: 0.000148 s⁻¹ | kon [1]: 363000 M⁻¹ s⁻¹ | Kd [2]: 0.268 nM | Relative Affinity [2]: 5 fold vs 25 (Tocilizumab) | koff [2]: 7.61e-05 s⁻¹ | kon [2]: 284000 M⁻¹ s⁻¹
B10: 28# (antibody, human IgG1, kappa, V domains shown)
VH: B1 VH with Y51F, I57M, A103T
VL: B1 VL
notes: also called Sample # 28

Kd [1]: 0.418 nM | Relative Affinity [1]: 4.1 fold vs 25 (Tocilizumab) | koff [1]: 0.000126 s⁻¹ | kon [1]: 302000 M⁻¹ s⁻¹ | Kd [2]: 0.288 nM | Relative Affinity [2]: 4.6 fold vs 25 (Tocilizumab) | koff [2]: 8.32e-05 s⁻¹ | kon [2]: 289000 M⁻¹ s⁻¹
B11: 12# (antibody, human IgG1, kappa, V domains shown)
VH: B1 VH with Y51F, S99C
VL: B1 VL
notes: also called Sample # 12

Kd [1]: 0.2 nM | Relative Affinity [1]: 8.6 fold vs 25 (Tocilizumab) | koff [1]: 5.97e-05 s⁻¹ | kon [1]: 298000 M⁻¹ s⁻¹ | Kd [2]: 0.145 nM | Relative Affinity [2]: 9.2 fold vs 25 (Tocilizumab) | koff [2]: 4.49e-05 s⁻¹ | kon [2]: 310000 M⁻¹ s⁻¹
B12: 15# (antibody, human IgG1, kappa, V domains shown)
VH: B1 VH with Y51F, S99C, A103I
VL: B1 VL
notes: also called Sample # 15

Kd [2]: 0.893 nM | Relative Affinity [2]: 1.5 fold vs 25 (Tocilizumab) | koff [2]: 0.000241 s⁻¹ | kon [2]: 270000 M⁻¹ s⁻¹
B13: 8# (antibody, human IgG1, kappa, V domains shown)
VH: B1 VH with Y51F, A103T, Y108F
VL: B1 VL
notes: also called Sample # 8

Kd [3]: 0.42 nM | Relative Affinity [3]: 6.8 fold vs 25 (Tocilizumab) | koff [3]: 5.72e-05 s⁻¹ | kon [3]: 136000 M⁻¹ s⁻¹
B14: 51# (antibody, human IgG1, kappa, V domains shown)
VH: B1 VH with S99C, A103M
VL: B1 VL
notes: also called Sample # 51

Kd [2]: 0.763 nM | Relative Affinity [2]: 1.8 fold vs 25 (Tocilizumab) | koff [2]: 0.000177 s⁻¹ | kon [2]: 232000 M⁻¹ s⁻¹
B15: 7# (antibody, human IgG1, kappa, V domains shown)
VH: B1 VH with A103T, M106I
VL: B1 VL
notes: also called Sample # 7

Kd [1]: 0.32 nM | Relative Affinity [1]: 5.3 fold vs 25 (Tocilizumab) | koff [1]: 6.28e-05 s⁻¹ | kon [1]: 196000 M⁻¹ s⁻¹ | Kd [2]: 0.249 nM | Relative Affinity [2]: 5.4 fold vs 25 (Tocilizumab) | koff [2]: 5.94e-05 s⁻¹ | kon [2]: 239000 M⁻¹ s⁻¹
B16: 9# (antibody, human IgG1, kappa, V domains shown)
VH: B1 VH with T58I, P62A, S99C, A103T
VL: B1 VL
notes: also called Sample # 9

Kd [1]: 0.317 nM | Relative Affinity [1]: 5.4 fold vs 25 (Tocilizumab) | koff [1]: 7.99e-05 s⁻¹ | kon [1]: 252000 M⁻¹ s⁻¹ | Kd [2]: 0.281 nM | Relative Affinity [2]: 4.8 fold vs 25 (Tocilizumab) | koff [2]: 7.13e-05 s⁻¹ | kon [2]: 254000 M⁻¹ s⁻¹
B17: 24# (antibody, human IgG1, kappa, V domains shown)
VH: B1 VH with S99C, A103I
VL: B1 VL
notes: also called Sample # 24

Kd [1]: 0.126 nM | Relative Affinity [1]: 13.6 fold vs 25 (Tocilizumab) | koff [1]: 4.27e-05 s⁻¹ | kon [1]: 339000 M⁻¹ s⁻¹ | Kd [2]: 0.102 nM | Relative Affinity [2]: 13.1 fold vs 25 (Tocilizumab) | koff [2]: 3.46e-05 s⁻¹ | kon [2]: 339000 M⁻¹ s⁻¹
B18: 27# (antibody, human IgG1, kappa, V domains shown)
VH: B1 VH with Y51F, I57M
VL: B1 VL
notes: also called Sample # 27

Kd [4]: 0.0789 nM | Relative Affinity [4]: 40.1 fold vs 25 (Tocilizumab) | koff [4]: 9.86e-06 s⁻¹ | kon [4]: 125000 M⁻¹ s⁻¹
B19: 246# (antibody, human IgG1, kappa, V domains shown)
VH: B1 VH with I57M, T58I, S99T, A103T, M106I, Y108F
VL: B1 VL with Q89G, T93R

Kd [1]: 0.255 nM | Relative Affinity [1]: 6.7 fold vs 25 (Tocilizumab) | koff [1]: 8.33e-05 s⁻¹ | kon [1]: 327000 M⁻¹ s⁻¹ | Kd [2]: 0.235 nM | Relative Affinity [2]: 5.7 fold vs 25 (Tocilizumab) | koff [2]: 7.03e-05 s⁻¹ | kon [2]: 299000 M⁻¹ s⁻¹
B20: 30# (antibody, human IgG1, kappa, V domains shown)
VH: B1 VH with Y51F, I57M, S99C, A103T
VL: B1 VL
notes: also called Sample # 30

Kd [1]: 0.187 nM | Relative Affinity [1]: 9.1 fold vs 25 (Tocilizumab) | koff [1]: 6.3e-05 s⁻¹ | kon [1]: 336000 M⁻¹ s⁻¹ | Kd [2]: 0.136 nM | Relative Affinity [2]: 9.8 fold vs 25 (Tocilizumab) | koff [2]: 4.04e-05 s⁻¹ | kon [2]: 296000 M⁻¹ s⁻¹
B21: 16# (antibody, human IgG1, kappa, V domains shown)
VH: B1 VH with Y51F, A103I
VL: B1 VL
notes: also called Sample # 16

Kd [2]: 0.373 nM | Relative Affinity [2]: 3.6 fold vs 25 (Tocilizumab) | koff [2]: 0.0001 s⁻¹ | kon [2]: 269000 M⁻¹ s⁻¹
B22: 13# (antibody, human IgG1, kappa, V domains shown)
VH: B1 VH with Y51F, S99C, A103T
VL: B1 VL
notes: also called Sample # 13

Kd [1]: 0.112 nM | Relative Affinity [1]: 15.3 fold vs 25 (Tocilizumab) | koff [1]: 3.08e-05 s⁻¹ | kon [1]: 276000 M⁻¹ s⁻¹ | Kd [2]: 0.0863 nM | Relative Affinity [2]: 15.5 fold vs 25 (Tocilizumab) | koff [2]: 2.38e-05 s⁻¹ | kon [2]: 275000 M⁻¹ s⁻¹
B23: 11# (antibody, human IgG1, kappa, V domains shown)
VH: B1 VH with Y51F
VL: B1 VL
notes: also called Sample # 11

Kd [1]: 0.354 nM | Relative Affinity [1]: 4.8 fold vs 25 (Tocilizumab) | koff [1]: 0.000117 s⁻¹ | kon [1]: 331000 M⁻¹ s⁻¹ | Kd [2]: 0.304 nM | Relative Affinity [2]: 4.4 fold vs 25 (Tocilizumab) | koff [2]: 8.71e-05 s⁻¹ | kon [2]: 287000 M⁻¹ s⁻¹
B24: 17# (antibody, human IgG1, kappa, V domains shown)
VH: B1 VH with Y51F, S99C, A103T
VL: B1 VL
notes: also called Sample # 17
